# Results published in the DeepSol protein solubility set.
# Assay: soluble on expression in E. coli; label from the status in PepcDB or PDB records
row,Sequence,soluble on expression in E. coli
1,MMNKDLSYCIVLSSEQLSYLAGSKYGIDRMKILNRLIEATVLEQTEYSKKGFAMTLQVGQAALSEVELSCKLGYDKKTISRVIDKMNQLGIVASVQSNRTSIHTQKCVSAWMLDGKRIDNPFYVRMKNRKDGNEKTANRPYNNSILPMKQQHILESNAEANCPTQTQTDNTAVSDETYSPDLSTSPTSSETPVTAYDDKNRNGYDELKAETNNHELLHTPTTTSGYEIAGNGSDNDAAQVNSTSAYPTTTLASPQPLAEEEPTNDQGNDWQL,not soluble
2,MGSDKIHHHHHHMPFIIDYQCLCAINSEIKMFSGEQLGQAISEAIKRKNVSQKEVADHFGVKQPSVSGWIKNGRIDKKHLDKLIDYFSDVVTPSHFGIETFRVLKSNEQSSIRFPRLNAEATCGAGTINDHYIEVVDYVTVAAAWAREKLGGNLNKIQVITARGDSMEPTIENGDVMFVDTAVEAFDGDGLYLLWYIDGLKAKRLQSTVGGGLMIISDNSSYRTETVRGEDLNAVRIIGRIRGAWRLSQF,not soluble
3,METEDHAFRIEDIFPFLDPYVSKWFDINYRSLTEPQKYAIPFIHEGRNVLVSSPTGTGKTLTAFLSIINELFMLARSGKLEDKIYCVYISPLKALANDVNKNLRAPLEGIYKIADEDGINLPKIRVSVRSGDTSEGERQKMARKPPHILITTPESFSLTLSSPRMRENLRDVKYVIIDEIHEISSTKRGSLLSANMERLEALRPGILRIGLSATQSP,not soluble
4,MEKLVEWENCVSVIEAAILKHKYKQKVNKNIPSLLRVQAHIRKKMVAQ,soluble
5,MAFVLDASTAVAWCFDEHHPAADRTLELAKVSEPRAPAILWFELRNAALMGIRRGRVKAEAADGVLARIERIRISIAPLPPAADPIFALAQRHRLTFYDAAYLELAQRERIGLATLDAALVGA,not soluble
6,MGSDKIHHHHHHLVSDNMVLQQATKVRLWGNATPNSSLKVRSSWDNTEYTAQVNDQGRWEIWVQTPSASFEKQQLTLKNGQDKIVLHDLLIGEVWFGSGQSNMEMPLRGFWHCPIEGGNHAIATSGKYKNSIRYATIQRVGALEPKDYPVGGEWKVCDPRNAPEFGATAYFFATLLTEVLNVPVGIINCSWGGSTVEGWLPKDILRNYSDIDLSLAGNDEKIHPMLQPMIMYNGMLKPASKYTVRGFLWYQGESNVGHPDYAKRLATMVEHWRGLWGQEELPFYLVEIAPYEYGEGDQAAYLREEQYKATRLIPNSGIVSTNDLVQDYEKRQIHPKEKQKIGERLCYMALNKTYGYTTIACEGPQYDHMEVDKDKIILFFKNAEDGFNRDNGIIGFEIAGKDMRFHKANATIDANKKTVIISAPDVKAPIAVRYGFRNFQIGNLQNVQGLPVLPFRTDK,not soluble
7,MIPGSTSGISFSRILSRQTSHQDATQHTDAQQAEIQQAAEDSSPGAEVQKFVQSTDEMSAALAQFRNRRDYEKKSSNLSNSFERVLEDEALPKAKQILKLISVHGGALEDFLRQARSLFPDPSDLVLVLRELLRRKDLEEIVRKKLESLLKHVEEQTDPKTLKAGINCALKARLFGKTLSLKPGLLRASYRQFIQSESHEVEIYSDWIASYGYQRRLVVLDFIEGSLLTDIDANDASCSRLEFGQLLRRLTQLKMLRSADLLFVSTLLSYSFTKAFNAEESSWLLLMLSLLQQPHEVDSLLADIIGLNALLLSHKEHASFLQIFYQVCKAIPSSLFYEEYWQEELLMALRSMTDIAYKHEMAEQRRTIEKLS,not soluble
8,MGSDKIHHHHHHMARTVVVGLGRSGIGAARLLQAEGHQVTVLERSIEPHLQSLAADLRLQGIAVELGKPLELNSFIPLLDQLDAVVISPGIAWDHPTLTALRQRGIDIDGEMAVAWRSLSHLPWIAITGTNGKTTVTHLLNHVLESNGLRAPMGGNVGHAAAEVALKWRQPNAQRPDWLVMELSSYQIEAAPEIAPRMGIWTNLTPDHLERHGTLDAYRTIKRGLLERSEIRIFNGDDPDLRSQRSSWDKGLWVSSEGPGTANHRADFWIDAEGLVREPQGALFAASALAMPGQHNLQNLLLVTAAARQTGLPAKAIEASLRSFPGVPHRLEQLGHIQQMSVYNDSKATNYDAACVGLKAVPPPAVVLAGGQTKQGDASGWLKQLDQNACAVILFGAGASELQELIKTSGFSGELHCCSNLNAAVTLAIPLGVERQAACLLLSPACASFDQYQDFEARGEHFRSLISSHLTA,not soluble
9,MNIMLTGATGHLGTHITNQAIANHIDHFHIGVRNVEKVPDDWRGKVSVRQLDYFNQESMVEAFKGMDTVVFIPSIIHPSFKRIPEVENLVYAAKQSGVAHIIFIGYYADQHNNPFHMSPYFGYASRLLSTSGIDYTYVRMAMYMDPLKPYLPELMNMHKLIYPAGDGRINYITRNDIARGVIAIIKNPDTWGKRYLLSGYSYDMKELAAILSEASGTEIKYEPVSLETFAEMYDEPKGFGALLASMYHAGARGLLDQESNDFKQLVNDQPQTLQSFLQENILEHHHHHH,soluble
10,GHMASNVANDGERPSRVVELTDETFDSIVMDPEKDVFVLYYVPWSRHSVAAMRLWDDLSMSQSQKRNHLTFVAARIDGEKYPDVIERMRVSGFPTMRYYTRIDKQEPFEYSGQRYLSLVDSFVFQNT,soluble
11,MANEANPCPCDIGHKLEYGGMGHEVQVEHIKAYVTRSPVDAGKAVIVVQDIFGWQLPNTRYMADMIARNGYTTIVPDFFVGQEPWDPAGDWSTFPAWLKSRNARKVNREVDAVLRYLRQQCHAQKIGIVGFCWGGVVVHQVMTAYPDIRAGVSVYGIIRDSEDVYNLKNPTLFIFAENDTVIPLEQVSTLTQKLKEHCIVNYQVKTFSGQTHGFVHRKREDCSPADKPYIEEARRNLIEWLNKYV,not soluble
12,MKNLVGRFMRYVTFDTQSKPKNHHCPSSTGQKVFAQALYEELLELGLSDVSLDDHGYVMAKLPSNVNYPVPAIGFIAHMDTSPDACGKHVKPQIVEDYQGGDIALGKGDEVLSPIQYPDLHLLHGYNLITTDGTTLLGADNKAGIAEIITAMEILLADPSIPHGDISIAFTPDEEIGRGANHFDVAKFAAQWAYTIDGGPIGELEYENFNAATATVVCHGVNVHPGTAKDKMVNAMHIAAQFILMMPENETPQHTEGYQGFYHLSGATMSVAKSELKYILRDFEAIGLQARQALMQAKVAELNQQLKKGRVEVSFEQSYSNMKEKVEPHPHIIELAKQAMVACDVEPKIKPIRGGTDGARLSFMGLPCPNIFTGGYNFHGIHEFITIEGMEAAVQVIVKLAEKTALHYRQ,not soluble
13,MGSDKIHHHHHHMFLILLEVIVTSCPLLSSSFARLNPIPLDDAVIRTFMFIILHCKDKSIANPGAIIYKPFYPKFRVMERNELVNFVEGILKRIGFRTMKLEFRGGCFDLVATRQLLLLFIKALANIDKFSEEQAEDLKKLAKLFKASPLLVGLRSKNAELEDGVVYERFGIYAITPGTLYSMFAEGEPPLIIAERGGFYVRIDGKKLKALREEHGYSITELAGILGISRKSLQRYEKGESVVSLEVALRLEEVFDEPLVKPIDVLRARLKDVTLTSEPDNILEKEVFEKLRKLGMSVVKIKTAPFNAITKEEEDDIELLTGIDERKTGRTLKRAELVSQMAEVVGSDGVFVVKKARMEVVRNVPILPKKLLEEIKDADELLELIRDLKFKS,not soluble
14,MSLIFSKIRGNFQDLKDGKISVKQGLITKSDAIELFNIKNWKDYLKLFSIASEVRDFFKNEIEITSTVHVTNICSVTPKCAYCGFAAGTSSEGYVEPFRSNDEQIKSSAAAVENSGIKRVSCSSGHGYSGKEVIRALKAVKSASNLEVLVNAGADITEDCISELKKYNIDTICCNLETTNKSVFNKVKPGENLDDRISVCKMVKKHGIELSSGLLIGIGESYEDRAEHLFFLKELDVEEIPVMGFNPYKDTPMEQCPKCSAIEQAKTIAIARLLFPNIRITSPTPTMGPELAQFALLGGASNIATVIPDNHPMNIKGVGNPKTGNLNDVICMMKELGLTPKLNEGHHHHHH,soluble
15,MSLDFATEYVYPAFSELTGTDKIVAFGDHSHKCPIYVPQTPPCTAECPAGEDIRAINRFLNGTDPSDDPLKSAWETATDTNPFPAVMGRICPHPCQSKCNRGVHDESVAINAVEQVLGNYGIEHNLKLKGPGADTGKRVAIIGGGPAGLSAAYQLRRKGHAVTIYDANEKLGGMVLYGIMGYRVDRKVLEAEIGRIIELGVETKMGVTIGKDITLEQLEAEYDAVFIAVGAQKGRALPVPGFEGTPGATNAIDFLKSYEVLGDDIPVGKHVVVIGDGNVSMDVARLALRLGSQATIISGVPREEMACFENEFDDAKNEGTTMHFLTGTVEVLGGASGVTGLRCTKMVKKEKGEEGWNSPIPFLRYKSNGESFEIEADMVVAAIGQATDLSGLGSAASGPWLKVDRNFRIPGREKLFGGGDALKVDLITTAVGHGRKAAYAIDAFLKGEPMPEEPYREITKPHKQDLLYFLHTPQAKRTSIKPEVVVGNHDELLEALTPEQAVTESKRCMSCGFCFDCKQCVSFCPQEAITRFRDNPAGEKVYTNYAKCVGCHLCSLVCPCGYIQMGMGDGEGHHHHHH,not soluble
16,MVLSIERKRAIVQYVKSRKIATVSELAKHFEVHEATIRRDLTSLEKDKKLKRTHGGVMIEEKVVSEPNWKKRSEVRYEEKQRIATLAATMVKDGDTIILDAGTTTGHIATALKDRSKLTVITNDINVASIMRFSPSKVIVTGGVIYPETFILNGMITSGTLQSIHVHKAFVTTPALDIDKGLMHYDEYLIPAKQQMLHSADEVILVTDHTKFGRISLYKYAALDEISSIITGKEIDPVLKEQFEEKGMQIYTTLEHHHHHH,soluble
17,MGSDKIHHHHHHLIPVLDTDAWVEKLLSTRRSAEGKILAFYEHRMEAICRDPRLLLMPADDHLAHRGDGVFESMKFEGRRLYQLDAHLERMERSARGIYLTPPCTQSVLRDIVLQVARAADTPDGCIRILLGRGPGGFGIDPAECPVPSLYVVAYSLTPKPEEWYEKGVTAFRTSIPAKQGYLATIKNANYIPNVLMKLEARSRGCDIPVSFDENDFIAEGPTENLCLVDADGTLVVPEFTNALSGTTIMRVIDLVRDEMNVAFRKVREDELYRAAEVMVLGTTTECVSVVSFEGQPVGGGRPGPVARRFRELLRRDLAENGISF,not soluble
18,MAHHHHHHMGTLEAQTQGPGSMLEKKTFKSSHTNAFHDFQARVYVADTDFSGVVYHARYLEFFERGRSEFLRDTGFNNTLLASGVEGEKLFFVVRHMEINFSRPAQIDNLLTIKTRISRLQGARFFMEQYILHGESMLVTAKVEIALINEEGKPRRLPKELFSTIVV,soluble
19,MGSDKIHHHHHHMILSRGRNYVFIHIPKTGGTALALALESRAMAGDEMLGDTPKAVKRRRRLHGTETRGRLWKHSTLADIEGLASREELRQMFAFTLVRNPFDRVVSLYHWLKEQSFDHPMVPLAHSLPFTSFVTDPLVMRALKSQPALSYMMQSDGYEHCSLYIRLEYFAKDAAPLFDHLGFALELPRVNESRRDPDWRVYYDSQAVDAVRTCCQLEIERFEYSFNDYPLSL,not soluble
